Biological target: T1, pro-caspase-8 (human (endogenous in HCT116), UniProt Q14790 1-479)
T1 construct: caspase-8, human, endogenous in HCT116 colon cancer cells; Precipitated with a caspase-8 antibody (IP-Cas-8); also called Cas-8; source: endogenous, HCT116 (WT or caspase-3 knockout) whole cell lysate
Test: co-IP; IP with caspase-8 antibody (IP-Cas-8) from lysates of HCT116 WT or C3KO cells treated with DMSO or 5-FU (50 μg/ml) for 24 h; also with z-VAD (20 μM) and with or without glutathione (GSH, 10 μM); blots quantified (Supplementary Tables S2, S3)
Conditions: partners not purified

T1 sequence (Q14790 whole entry): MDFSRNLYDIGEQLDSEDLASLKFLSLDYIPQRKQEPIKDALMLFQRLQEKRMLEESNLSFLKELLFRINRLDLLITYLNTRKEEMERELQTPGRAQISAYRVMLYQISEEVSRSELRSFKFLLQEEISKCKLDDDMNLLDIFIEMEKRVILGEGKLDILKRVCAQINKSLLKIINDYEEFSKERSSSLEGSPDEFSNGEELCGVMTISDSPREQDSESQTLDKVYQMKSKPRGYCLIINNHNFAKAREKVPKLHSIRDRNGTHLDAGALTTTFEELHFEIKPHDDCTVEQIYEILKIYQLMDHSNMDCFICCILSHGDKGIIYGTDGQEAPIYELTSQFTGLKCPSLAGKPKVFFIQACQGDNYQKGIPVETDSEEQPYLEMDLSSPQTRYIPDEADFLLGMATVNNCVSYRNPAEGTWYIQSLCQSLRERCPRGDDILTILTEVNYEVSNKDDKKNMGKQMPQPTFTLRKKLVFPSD

Binder	quantified 5-FU-induced FADD in the complex (C3KO cells, without z-VAD; FADD term of the FADD to RIP1 ratio)	quantified 5-FU-induced FADD in the complex (with z-VAD; FADD term of the FADD to RIP1 ratio)	quantified 5-FU-induced RIP1 in the complex (with z-VAD; RIP1 term of the FADD to RIP1 ratio)
Fas (TNFRSF6)-associated via death domain (natural protein, human (endogenous in HCT116), UniProt Q13158 1-208, looked up, FADD, human, endogenous in HCT116 colon cancer cells; also called FADD; source: endogenous, HCT116 (WT or caspase-3 knockout) whole cell lysate) MDPFLVLLHSVSSSLSSSELTELKFLCLGRVGKRKLERVQSGLDLFSMLLEQNDLEPGHTELLRELLASLRRHDLLRRVDDFEAGAAAGAAPGEEDLCAAFNVICDNVGKDWRRLARQLKVSDTKIDSIEDRYPRNLTERVRESLRIWKNTEKENATVAHLVGALRSCQMNLVADLVQEVQQARDLQNRSGAMSPMSWNSDASTSEAS	1.82	7.5	
receptor (TNFRSF)-interacting serine-threonine kinase 1 (natural protein, human (endogenous in HCT116), UniProt Q13546 1-671, looked up, also called RIP1; RIP; source: endogenous, HCT116 (WT or caspase-3 knockout) whole cell lysate) MQPDMSLNVIKMKSSDFLESAELDSGGFGKVSLCFHRTQGLMIMKTVYKGPNCIEHNEALLEEAKMMNRLRHSRVVKLLGVIIEEGKYSLVMEYMEKGNLMHVLKAEMSTPLSVKGRIILEIIEGMCYLHGKGVIHKDLKPENILVDNDFHIKIADLGLASFKMWSKLNNEEHNELREVDGTAKKNGGTLYYMAPEHLNDVNAKPTEKSDVYSFAVVLWAIFANKEPYENAICEQQLIMCIKSGNRPDVDDITEYCPREIISLMKLCWEANPEARPTFPGIEEKFRPFYLSQLEESVEEDVKSLKKEYSNENAVVKRMQSLQLDCVAVPSSRSNSATEQPGSLHSSQGLGMGPVEESWFAPSLEHPQEENEPSLQSKLQDEANYHLYGSRMDRQTKQQPRQNVAYNREEERRRRVSHDPFAQQRPYENFQNTEGKGTAYSSAASHGNAVHQPSGLTSQPQVLYQNNGLYSSHGFGTRPLDPGTAGPRVWYRPIPSHMPSLHNIPVPETNYLGNTPTMPFSSLPPTDESIKYTIYNSTGIQIGAYNYMEIGGTSSSLLDSTNTNFKEEPAAKYQAIFDNTTSLTDKHLDPIRENLGKHWKNCARKLGFTQSQIDEIDHDYERDGLKEKVYQMLQKWVMREGIKGATVGKLAQALHQCSRIDLLSSLIYVSQN			7.3
